From patent US20250332264A1, “GhR-BINDING PEPTIDE AND COMPOSITION COMPRISING SAME” (priority 2021, published 2025)
Starred links: 1 amine or outer side, 2 acyl side, 3 side chain; linkers in the order of their positions; H or OH if unused. Positions of bridges follow the written chain, without caps; N, C: chain ends. Non-standard residues stand in square brackets, D forms with d. Groups on a side chain read outwards from the residue. *: point of attachment. KCOpipzaa = N6-(4-(carboxymethyl)piperazine-1-carbonyl)-L-lysine, O=C(NCCCC[C@H](N[*:1])C(=O)[*:2])N1CCN(CC(=O)[*:3])CC1; A4pipaa = 4-amino-1-(carboxymethyl)piperidine-4-carboxylic acid, O=C(C1(N[*:1])CCN(CC(=O)[*:3])CC1)[*:2]; Trp(1-CH2CO) = O=C([C@H](Cc1cn(CC(=O)[*:3])c2ccccc12)N[*:1])[*:2]; Trp(5-OMe) = COc1ccc2[nH]cc(C[C@H](N)C(=O)O)c2c1; Butanoyl(4-(4-I-phenyl)) = O=C(CCCc1ccc(I)cc1)*; Trp(5-OH) = N[C@@H](Cc1c[nH]c2ccc(O)cc12)C(=O)O; Phe(4-COOH) = N[C@@H](Cc1ccc(C(=O)O)cc1)C(=O)O; C16 diacid = O=C(O)CCCCCCCCCCCCCCC(=O)*; NMeK = CN[C@@H](CCCCN)C(=O)O; Aib = CC(C)(N)C(=O)O; Sar = CNCC(=O)O

T1: Recombinant human GhR-Fc protein (R&D Systems) (human, UniProt P10912 19-264, limits assumed)
T1 construct: Bought from R&D Systems; Amine-coupled to a CM5 chip in the SPR assay; also called hGhR; recombinant human GhR protein fused to Fc portion of human IgG; not shown: Fc portion of human IgG
T1 sequence (looked up): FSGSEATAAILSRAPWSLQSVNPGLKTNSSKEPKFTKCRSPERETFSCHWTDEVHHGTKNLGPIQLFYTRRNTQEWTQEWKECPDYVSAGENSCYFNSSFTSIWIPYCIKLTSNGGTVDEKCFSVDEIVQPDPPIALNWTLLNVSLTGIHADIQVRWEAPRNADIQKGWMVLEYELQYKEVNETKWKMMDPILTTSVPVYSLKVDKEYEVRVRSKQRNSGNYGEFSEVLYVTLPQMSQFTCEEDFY


Molecular target: T1, Recombinant human GhR-Fc protein (R&D …)
Assay: SPR, Biacore T200, single-cycle kinetics, GhR-Fc immobilised on CM5
Procedure: SPR assay was performed using Biacore T200 (cytiva: Former GE Healthcare). After the equilibration of Series S Sensor Chip CM5 (produced by cytiva: Former GE Healthcare) with Running Buffer (HBS-EP with 1% (v/v) DMSO), an EDC/NHS mixture was injected at a flow rate of 10 μL/min for 7 minutes to thereby activate the functional groups on sensor chip. Recombinant human GhR-Fc protein (R&D Systems) in 10 mM Acetate (pH4.0) was injected immobilized to at a flow rate of 5 μL/min. It took 7 minutes to immobilize the GhR on the substrate surfaces of the sensor chip. Then Ethanolamine was injected at a flow rate of 10 μL/min for 7 minutes. 1M Ethanolamine (aq.) was injected at a flow rate of 10 μL/min for 420 seconds for capping. 10 mM Peptides in DMSO were diluted to obtain 10 uM with Running Buffer, and prepared 100 nM, 50 nM, 25 nM, 10 nM, 5 nM of each peptide solutions (Peptide Samples).
Using these Peptide Samples, kinetics of peptides against human GhR-Fc protein were measured. The method adopted for sample measurement was a single-cycle kinetics method. The analysis was conducted using the evaluation software provided with Biacore T200. A DMSO correction curve obtained by solvent correction measurements was applied for the analysis. Kinetics fitting was done on the difference data obtained by subtracting the baseline data from sample measurement data. KD values were calculated based on the association rate constant (ka) and dissociation rate constant (kd).

Binder	Kd [nM]
{CH2CO}-Y[NMeK]VVSN[Trp(1-CH2CO)]Y[KCOpipzaa][Trp(5-OH)][Aib]VCK([Glu-Glu-C16 diacid])-NH2 (thioether N-13; lactam 2-7, also called Compound No. 27) [GhR_PD_234]	1.79
{CH2CO}-Y[NMeK]VVSN[Trp(1-CH2CO)][Phe(4-COOH)]K[Trp(5-OH)][A4pipaa]VCK([Glu-Glu-C16 diacid])-NH2 (thioether N-13; lactam 2-7, also called Compound No. 23) [GhR_PD_239]	2.29
{CH2CO}-Y[NMeK]VVSN[Trp(1-CH2CO)]YK[Trp(5-OH)][Aib]VCG-NH2 (thioether N-13; lactam 2-7 via Sar, also called Compound No. 3) [GhR_PD_141]	1.71
{CH2CO}-[Phe(4-COOH)][NMeK]VVSN[Trp(1-CH2CO)]YK[Trp(5-OH)][Aib]VCK([Glu-Glu-Butanoyl(4-(4-I-phenyl))])-NH2 (thioether N-13; lactam 2-7, also called Compound No. 21) [GhR_PD_215]	1.07

The remaining binders from weak to strong by Kd, led by results:

Kd [nM]	Binder
3.36	{CH2CO}-YKVVSN[Trp(5-OMe)]YK[Trp(5-OH)][A4pipaa]VC-NH2 (thioether N-13; not fully specified (residue 2); also: albumin binder E-4IPhpCO, attachment site not given here, No linker; also called Compound No. 45) [GhR_PD_205]
2.59	{CH2CO}-Y[NMeK]VVSN[Trp(1-CH2CO)][Phe(4-COOH)]K[Trp(5-OH)][Aib]VCK([Glu-Glu-C16 diacid])-NH2 (thioether N-13; lactam 2-7, also called Compound No. 24) [GhR_PD_232]
1.59	{CH2CO}-Y[NMeK]VVSN[Trp(1-CH2CO)][Phe(4-COOH)]K[Trp(5-OH)][Aib]VCK([Glu-Glu-Butanoyl(4-(4-I-phenyl))])-NH2 (thioether N-13; lactam 2-7, also called Compound No. 26) [GhR_PD_216]
1.22	{CH2CO}-Y[NMeK]VVSN[Trp(1-CH2CO)]YK[Trp(5-OH)][Aib]VCG-NH2 (thioether N-13; lactam 2-7 via G, also called Compound No. 2) [GhR_PD_140]
1.07	{CH2CO}-Y[NMeK]VVSN[Trp(1-CH2CO)]YK[Trp(5-OH)][Aib]VCG-NH2 (thioether N-13; lactam 2-7 via P, also called Compound No. 4) [GhR_PD_142]
